According to IntAct's records for PubMed 25910212:

B1: Beta-crystallin A4 (Homo sapiens), P53673 (parent)
chain: MTLQCTKSAGPWKMVVWDEDGFQGRRHEFTAECPSVLELGFETVRSLKVLSGAWVGFEHAGFQGQQYILERGEYPSWDAWGGNTAYPAERLTSFRPAACANHRDSRLTIFEQENFLGKKGELSDDYPSLQAMGWEGNEVGSFHVHSGAWVCSQFPGYRGFQYVLECDHHSGDYKHFREWGSHAPTFQVQSIRRIQQ
partner: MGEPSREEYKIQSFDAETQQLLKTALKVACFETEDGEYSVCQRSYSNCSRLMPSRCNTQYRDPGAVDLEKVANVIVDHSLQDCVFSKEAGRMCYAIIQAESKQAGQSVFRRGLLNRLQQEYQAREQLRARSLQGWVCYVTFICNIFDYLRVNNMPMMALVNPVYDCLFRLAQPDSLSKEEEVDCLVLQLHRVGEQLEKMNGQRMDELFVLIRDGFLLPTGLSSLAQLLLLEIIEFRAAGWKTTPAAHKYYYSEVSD
B2: Galactose-1-phosphate uridylyltransferase (Homo sapiens), P07902 (parent)
chain: MSRSGTDPQQRQQASEADAAAATFRANDHQHIRYNPLQDEWVLVSAHRMKRPWQGQVEPQLLKTVPRHDPLNPLCPGAIRANGEVNPQYDSTFLFDNDFPALQPDAPSPGPSDHPLFQAKSARGVCKVMCFHPWSDVTLPLMSVPEIRAVVDAWASVTEELGAQYPWVQIFENKGAMMGCSNPHPHCQVWASSFLPDIAQREERSQQAYKSQHGEPLLMEYSRQELLRKERLVLTSEHWLVLVPFWATWPYQTLLLPRRHVRRLPELTPAERDDLASIMKKLLTKYDNLFETSFPYSMGWHGAPTGSEAGANWNHWQLHAHYYPPLLRSATVRKFMVGYEMLAQAQRDLTPEQAAERLRALPEVHYHLGQKDRETATIA
B3: U4/U6 small nuclear ribonucleoprotein Prp31 (Homo sapiens), Q8WWY3 (parent)
chain: MSLADELLADLEEAAEEEEGGSYGEEEEEPAIEDVQEETQLDLSGDSVKTIAKLWDSKMFAEIMMKIEEYISKQAKASEVMGPVEAAPEYRVIVDANNLTVEIENELNIIHKFIRDKYSKRFPELESLVPNALDYIRTVKELGNSLDKCKNNENLQQILTNATIMVVSVTASTTQGQQLSEEELERLEEACDMALELNASKHRIYEYVESRMSFIAPNLSIIIGASTAAKIMGVAGGLTNLSKMPACNIMLLGAQRKTLSGFSSTSVLPHTGYIYHSDIVQSLPPDLRRKAARLVAAKCTLAARVDSFHESTEGKVGYELKDEIERKFDKWQEPPPVKQVKPLPAPLDGQRKKRGGRRYRKMKERLGLTEIRKQANRMSFGEIEEDAYQEDLGFSLGHLGKSGSGRVRQTQVNEATKARISKTLQRTLQKQSVVYGGKSTIRDRSSGTASSVAFTPLQGLEIVNPQAAEKKVAEANQKYFSSMAEFLKVKGEKSGLMST
partner: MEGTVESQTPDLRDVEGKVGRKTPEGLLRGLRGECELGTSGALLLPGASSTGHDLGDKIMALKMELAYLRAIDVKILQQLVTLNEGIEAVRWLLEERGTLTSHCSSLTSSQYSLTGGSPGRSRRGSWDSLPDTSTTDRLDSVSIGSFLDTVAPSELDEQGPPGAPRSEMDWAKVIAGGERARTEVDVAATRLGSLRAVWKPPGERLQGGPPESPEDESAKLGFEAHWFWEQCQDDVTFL
B4: Transmembrane protein 43 (Homo sapiens), Q9BTV4 (parent)
chain: MAANYSSTSTRREHVKVKTSSQPGFLERLSETSGGMFVGLMAFLLSFYLIFTNEGRALKTATSLAEGLSLVVSPDSIHSVAPENEGRLVHIIGALRTSKLLSDPNYGVHLPAVKLRRHVEMYQWVETEESREYTEDGQVKKETRYSYNTEWRSEIINSKNFDREIGHKNPSAMAVESFMATAPFVQIGRFFLSSGLIDKVDNFKSLSLSKLEDPHVDIIRRGDFFYHSENPKYPEVGDLRVSFSYAGLSGDDPDLGPAHVVTVIARQRGDQLVPFSTKSGDTLLLLHHGDFSAEEVFHRELRSNSMKTWGLRAAGWMAMFMGLNLMTRILYTLVDWFPVFRDLVNIGLKAFAFCVATSLTLLTVAAGWLFYRPLWALLIAGLALVPILVARTRVPAKKLE
partner: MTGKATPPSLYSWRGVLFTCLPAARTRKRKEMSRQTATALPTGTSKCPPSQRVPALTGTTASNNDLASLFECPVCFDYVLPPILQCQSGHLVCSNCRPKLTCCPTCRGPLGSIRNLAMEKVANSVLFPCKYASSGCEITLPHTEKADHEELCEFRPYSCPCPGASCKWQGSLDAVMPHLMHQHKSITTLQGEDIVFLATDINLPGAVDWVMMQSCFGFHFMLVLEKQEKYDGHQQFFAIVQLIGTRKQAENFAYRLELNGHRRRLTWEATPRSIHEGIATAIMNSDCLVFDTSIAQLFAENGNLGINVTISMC
B5: Tribbles homolog 3 (Homo sapiens), Q96RU7 (parent)
chain: MRATPLAAPAGSLSRKKRLELDDNLDTERPVQKRARSGPQPRLPPCLLPLSPPTAPDRATAVATASRLGPYVLLEPEEGGRAYQALHCPTGTEYTCKVYPVQEALAVLEPYARLPPHKHVARPTEVLAGTQLLYAFFTRTHGDMHSLVRSRHRIPEPEAAVLFRQMATALAHCHQHGLVLRDLKLCRFVFADRERKKLVLENLEDSCVLTGPDDSLWDKHACPAYVGPEILSSRASYSGKAADVWSLGVALFTMLAGHYPFQDSEPVLLFGKIRRGAYALPAGLSAPARCLVRCLLRREPAERLTATGILLHPWLRQDPMPLAPTRSHLWEAAQVVPDGLGLDEAREEEGDREVVLYG
partner: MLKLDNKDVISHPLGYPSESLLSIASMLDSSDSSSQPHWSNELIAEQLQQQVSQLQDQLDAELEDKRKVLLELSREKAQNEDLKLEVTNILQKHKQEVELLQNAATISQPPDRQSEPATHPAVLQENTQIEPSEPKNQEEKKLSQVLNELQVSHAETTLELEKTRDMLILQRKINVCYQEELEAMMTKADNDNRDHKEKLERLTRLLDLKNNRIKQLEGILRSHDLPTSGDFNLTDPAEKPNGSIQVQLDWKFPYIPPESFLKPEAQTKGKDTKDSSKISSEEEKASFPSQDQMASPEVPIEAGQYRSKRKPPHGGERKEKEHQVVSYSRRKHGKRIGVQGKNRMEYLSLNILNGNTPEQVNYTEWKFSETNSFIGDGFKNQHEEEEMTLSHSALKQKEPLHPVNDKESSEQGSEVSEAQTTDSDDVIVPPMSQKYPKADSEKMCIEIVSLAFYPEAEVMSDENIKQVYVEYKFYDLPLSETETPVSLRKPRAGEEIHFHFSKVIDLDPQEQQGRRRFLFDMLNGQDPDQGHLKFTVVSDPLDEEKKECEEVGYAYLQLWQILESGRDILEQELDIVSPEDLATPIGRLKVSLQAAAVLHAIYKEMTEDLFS
B6: AMP deaminase 3 (Homo sapiens), Q01432 (parent)
chain: MPRQFPKLNISEVDEQVRLLAEKVFAKVLREEDSKDALSLFTVPEDCPIGQKEAKERELQKELAEQKSVETAKRKKSFKMIRSQSLSLQMPPQQDWKGPPAASPAMSPTTPVVTGATSLPTPAPYAMPEFQRVTISGDYCAGITLEDYEQAAKSLAKALMIREKYARLAYHRFPRITSQYLGHPRADTAPPEEGLPDFHPPPLPQEDPYCLDDAPPNLDYLVHMQGGILFVYDNKKMLEHQEPHSLPYPDLETYTVDMSHILALITDGPTKTYCHRRLNFLESKFSLHEMLNEMSEFKELKSNPHRDFYNVRKVDTHIHAAACMNQKHLLRFIKHTYQTEPDRTVAEKRGRKITLRQVFDGLHMDPYDLTVDSLDVHAGRQTFHRFDKFNSKYNPVGASELRDLYLKTENYLGGEYFARMVKEVARELEESKYQYSEPRLSIYGRSPEEWPNLAYWFIQHKVYSPNMRWIIQVPRIYDIFRSKKLLPNFGKMLENIFLPLFKATINPQDHRELHLFLKYVTGFDSVDDESKHSDHMFSDKSPNPDVWTSEQNPPYSYYLYYMYANIMVLNNLRRERGLSTFLFRPHCGEAGSITHLVSAFLTADNISHGLLLKKSPVLQYLYYLAQIPIAMSPLSNNSLFLEYSKNPLREFLHKGLHVSLSTDDPMQFHYTKEALMEEYAIAAQVWKLSTCDLCEIARNSVLQSGLSHQEKQKFLGQNYYKEGPEGNDIRKTNVAQIRMAFRYETLCNELSFLSDAMKSEEITALTN
B7: Acetylcholine receptor subunit gamma (Homo sapiens), P07510-2 (parent)
chain: MHGGQGPLLLLLLLAVCLGAQGRNQEERLLADLMQNYDPNLRPAERDSDVVNVSLKLTLTNLISLNEREEALTTNVWIEMQWCDYRLRWDPRDYEGLWVLRVPSTMVWRPDIVLENKSQTYSTNEIDLQLSQEDGQTIEWIFIDPEAFTENGEWAIQHRPAKMLLDPAAPAQEAGHQKVVFYLLIQRKPLFYVINIIAPCVLISSVAILIHFLPAKAGGQKCTVAINVLLAQTVFLFLVAKKVPETSQAVPLISKYLTFLLVVTILIVVNAVVVLNVSLRSPHTHSMARGVRKVFLRLLPQLLRMHVRPLAPAAVQDTQSRLQNGSSGWSITTGEEVALCLPRSELLFQQWQRQGLVAAALEKLEKGPELGLSQFCGSLKQAAPAIQACVEACNLIACARHQQSHFDNGNEEWFLVGRVLDRVCFLAMLSLFICGTAGIFLMAHYNRVPALPFPGDPRPYLPSPD
partner: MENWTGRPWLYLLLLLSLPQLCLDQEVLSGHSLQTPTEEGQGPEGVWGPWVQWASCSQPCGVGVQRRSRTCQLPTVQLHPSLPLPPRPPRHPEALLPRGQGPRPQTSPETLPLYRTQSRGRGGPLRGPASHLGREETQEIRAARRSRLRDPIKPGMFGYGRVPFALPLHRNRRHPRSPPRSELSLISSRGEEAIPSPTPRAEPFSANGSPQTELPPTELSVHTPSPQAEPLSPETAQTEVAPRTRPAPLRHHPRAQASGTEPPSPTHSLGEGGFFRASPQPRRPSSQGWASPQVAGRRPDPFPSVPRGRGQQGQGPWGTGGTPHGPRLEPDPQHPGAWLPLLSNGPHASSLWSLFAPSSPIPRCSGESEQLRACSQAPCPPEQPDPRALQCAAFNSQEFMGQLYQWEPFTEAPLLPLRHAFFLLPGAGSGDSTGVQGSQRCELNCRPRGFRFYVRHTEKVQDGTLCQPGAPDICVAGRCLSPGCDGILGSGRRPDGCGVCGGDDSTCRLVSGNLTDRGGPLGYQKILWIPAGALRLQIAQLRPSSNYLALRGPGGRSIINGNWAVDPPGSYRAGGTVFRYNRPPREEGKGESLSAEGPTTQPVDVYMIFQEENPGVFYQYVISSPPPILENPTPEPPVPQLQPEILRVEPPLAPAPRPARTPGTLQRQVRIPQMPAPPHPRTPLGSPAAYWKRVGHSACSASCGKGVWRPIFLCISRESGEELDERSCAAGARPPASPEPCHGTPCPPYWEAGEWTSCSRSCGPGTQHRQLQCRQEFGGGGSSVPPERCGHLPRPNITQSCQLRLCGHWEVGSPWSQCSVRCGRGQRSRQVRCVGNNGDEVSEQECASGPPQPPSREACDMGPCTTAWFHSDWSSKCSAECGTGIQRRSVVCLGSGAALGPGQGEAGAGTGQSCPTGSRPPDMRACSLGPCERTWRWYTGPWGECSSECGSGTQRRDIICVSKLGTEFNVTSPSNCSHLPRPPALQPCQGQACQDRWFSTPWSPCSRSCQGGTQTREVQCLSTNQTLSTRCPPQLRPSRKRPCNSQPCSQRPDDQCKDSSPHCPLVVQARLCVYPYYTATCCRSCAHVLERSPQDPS

Variants of: B1
Settings: with MIF4GD

| Variant | effect of a mutation on the interaction |
| --- | --- |
| F94S | disrupting interaction strength |
| V36M | disrupting interaction strength |
| L69P | disrupting interaction strength |

Variants of: B2
Settings: with TNK2, Q07912-2
Sequence of TNK2, Q07912-2 (Q07912 other isoform, or with tags, fused parts or gaps): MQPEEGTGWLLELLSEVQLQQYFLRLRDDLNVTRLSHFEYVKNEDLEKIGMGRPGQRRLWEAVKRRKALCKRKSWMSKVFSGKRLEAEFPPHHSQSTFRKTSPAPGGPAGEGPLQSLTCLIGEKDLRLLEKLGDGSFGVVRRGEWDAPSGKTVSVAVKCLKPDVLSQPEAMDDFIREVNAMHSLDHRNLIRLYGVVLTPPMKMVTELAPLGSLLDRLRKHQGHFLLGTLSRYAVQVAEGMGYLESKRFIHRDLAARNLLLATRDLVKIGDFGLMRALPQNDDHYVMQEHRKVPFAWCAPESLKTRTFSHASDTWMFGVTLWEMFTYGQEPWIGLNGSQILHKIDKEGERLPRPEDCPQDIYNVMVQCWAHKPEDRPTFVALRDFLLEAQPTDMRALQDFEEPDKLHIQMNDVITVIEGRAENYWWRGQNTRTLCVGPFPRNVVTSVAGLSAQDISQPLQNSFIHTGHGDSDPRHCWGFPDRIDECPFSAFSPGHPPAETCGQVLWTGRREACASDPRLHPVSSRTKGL

| Variant | effect of a mutation on the interaction |
| --- | --- |
| H319Q | with no effect |
| Y34N | with no effect |
| R272H | with no effect |
| G175D | with no effect |

Variants of: B3
Settings: with lura1_human LURAP1, Q96LR2

| Variant | effect of a mutation on the interaction |
| --- | --- |
| L107V | with no effect |

Variants of: B4
Settings: with SIAH1, Q8IUQ4-2

| Variant | effect of a mutation on the interaction |
| --- | --- |
| S358L | with no effect |

Variants of: B5
Settings: with RPGRIP1, Q96KN7-4

| Variant | effect of a mutation on the interaction |
| --- | --- |
| Q84R | with no effect |

Variants of: B6
Settings: with hs90b_human HSP90AB1, P08238
Sequence of hs90b_human HSP90AB1, P08238 (P08238 whole entry): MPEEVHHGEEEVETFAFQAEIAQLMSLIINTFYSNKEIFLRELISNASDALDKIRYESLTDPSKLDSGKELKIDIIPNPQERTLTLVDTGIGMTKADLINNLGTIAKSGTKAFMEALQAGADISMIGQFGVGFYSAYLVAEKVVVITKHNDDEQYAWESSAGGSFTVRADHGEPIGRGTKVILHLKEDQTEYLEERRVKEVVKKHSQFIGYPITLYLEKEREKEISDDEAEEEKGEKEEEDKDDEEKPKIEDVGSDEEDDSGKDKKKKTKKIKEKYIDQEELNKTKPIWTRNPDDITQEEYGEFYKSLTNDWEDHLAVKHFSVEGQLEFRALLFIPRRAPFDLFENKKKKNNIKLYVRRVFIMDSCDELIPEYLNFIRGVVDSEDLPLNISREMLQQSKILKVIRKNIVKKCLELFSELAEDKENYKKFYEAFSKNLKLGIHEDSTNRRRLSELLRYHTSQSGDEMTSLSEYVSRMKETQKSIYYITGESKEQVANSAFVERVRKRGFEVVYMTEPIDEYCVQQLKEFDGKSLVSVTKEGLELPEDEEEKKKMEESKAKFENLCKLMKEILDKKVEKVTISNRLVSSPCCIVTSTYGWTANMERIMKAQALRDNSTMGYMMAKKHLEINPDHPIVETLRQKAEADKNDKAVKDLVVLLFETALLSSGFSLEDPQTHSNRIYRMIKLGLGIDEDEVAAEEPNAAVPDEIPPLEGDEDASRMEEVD

| Variant | effect of a mutation on the interaction |
| --- | --- |
| W450R | increasing interaction strength |
| A320V | increasing interaction strength |

Variants of: B7
Settings: with ADAMTSL4, Q6UY14-3

| Variant | effect of a mutation on the interaction |
| --- | --- |
| R187C | disrupting interaction strength |
| V107G | disrupting interaction strength |
| R86C | disrupting interaction strength |
